In publication PMC9352680, “A comprehensive thermodynamic model for RNA binding by the Saccharomyces cerevisiae Pumilio protein PUF4”:

T1: PUF4 RNA-binding domain (Saccharomyces cerevisiae, UniProt P25339 537-888)
T1 sequence: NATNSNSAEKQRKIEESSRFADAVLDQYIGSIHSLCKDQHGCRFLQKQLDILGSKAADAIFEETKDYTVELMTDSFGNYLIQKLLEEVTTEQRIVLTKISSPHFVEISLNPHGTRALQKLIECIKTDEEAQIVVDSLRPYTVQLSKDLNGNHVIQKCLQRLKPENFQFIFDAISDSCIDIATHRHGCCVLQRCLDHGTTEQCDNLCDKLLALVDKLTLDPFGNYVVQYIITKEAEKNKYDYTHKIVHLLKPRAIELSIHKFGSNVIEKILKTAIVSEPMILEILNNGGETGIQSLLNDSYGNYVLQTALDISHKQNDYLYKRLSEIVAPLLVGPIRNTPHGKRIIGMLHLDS


Target: T1, PUF4 RNA-binding domain
Experiment: Mg; RNA-MaP; 20 mM Na-HEPES pH 7.4, 30 mM KOAc, 0.75 mM MgCl2, 0.1% Tween-20, 5% glycerol, 0.1 mg/mL BSA, 2 mM DTT; 25 C; 0.0125-409.6 nM protein
Settings: tags: N-His6-TEV cleaved; C-SNAP kept, Cy3B-labelled; label: tethered on chip by stalled RNA polymerase

Binder	Kd
Ic_S2_P4E.1_K4.1_C4.1_H4.1_A4.1_[T5C]_[A6T]_[T7A]_F4.1_[T8G]_[A9T]_T4.1 (ssRNA) RNA: UUUGAUUAAUAUGAUAUCGUUCUUUCUUGUACUAGUUUCUUUCUCGAUAUCAUAUUAAUCUUU	538 nM
Ic_S2_P4E.1_K4.1_C4.1_H4.1_A4.1_[T5C]_[A6T]_[T7A]_F4.1_[T8C]_T4.1 (ssRNA) RNA: UUUGAUUAAUAUGAUAUCGUUCUUUCUUGUACUACAUUCUUUCUCGAUAUCAUAUUAAUCUUU	353 nM
Ic_S2_P4E.1_K4.1_C4.1_H4.1_A4.1_[T5C]_[A6T]_[T7A]_F4.1_[T8A]_[A9C]_T4.1 (ssRNA) RNA: UUUGAUUAAUAUGAUAUCGUUCUUUCUUGUACUAACUUCUUUCUCGAUAUCAUAUUAAUCUUU	519 nM
Ic_S2_P4E.1_K4.1_C4.1_H4.1_A4.1_[T5C]_[A6T]_[T7A]_F4.1_[A9C]_T4.1 (ssRNA) RNA: UUUGAUUAAUAUGAUAUCGUUCUUUCUUGUACUAUCUUCUUUCUCGAUAUCAUAUUAAUCUUU	9.16 nM
Ic_S2_P4E.1_K4.1_C4.1_H4.1_A4.1_[T5C]_[A6T]_F4.1_[T8G]_[A9G]_T4.1 (ssRNA) RNA: UUUGAUUAAUAUGAUAUCGUUCUUUCUUGUACUUGGUUCUUUCUCGAUAUCAUAUUAAUCUUU	430 nM
Ic_S2_P4E.1_K4.1_C4.1_H4.1_A4.1_[T5C]_[A6T]_F4.1_[T8G]_[A9C]_T4.1 (ssRNA) RNA: UUUGAUUAAUAUGAUAUCGUUCUUUCUUGUACUUGCUUCUUUCUCGAUAUCAUAUUAAUCUUU	365 nM
Ic_S2_P4E.1_K4.1_C4.1_H4.1_A4.1_[T5C]_[A6T]_F4.1_[T8G]_[A9T]_T4.1 (ssRNA) RNA: UUUGAUUAAUAUGAUAUCGUUCUUUCUUGUACUUGUUUCUUUCUCGAUAUCAUAUUAAUCUUU	72.9 nM
UCUCUUUGUAGCUAUCUCUU (ssRNA) [Ib_S1_P3E.1_K3.1_C3.1_H3.1_A3.1_[T5G]_[A6C]_F3.1_T3.1]	819 nM
Ic_S2_P4E.1_K4.1_C4.1_H4.1_A4.1_[T5C]_[A6T]_F4.1_[T8C]_[A9G]_T4.1 (ssRNA) RNA: UUUGAUUAAUAUGAUAUCGUUCUUUCUUGUACUUCGUUCUUUCUCGAUAUCAUAUUAAUCUUU	110 nM
Ic_S2_P4E.1_K4.1_C4.1_H4.1_A4.1_[T5C]_[A6T]_F4.1_[T8C]_[A9C]_T4.1 (ssRNA) RNA: UUUGAUUAAUAUGAUAUCGUUCUUUCUUGUACUUCCUUCUUUCUCGAUAUCAUAUUAAUCUUU	102 nM
Ic_S2_P4E.1_K4.1_C4.1_H4.1_A4.1_[T5C]_[A6T]_F4.1_[T8C]_[A9T]_T4.1 (ssRNA) RNA: UUUGAUUAAUAUGAUAUCGUUCUUUCUUGUACUUCUUUCUUUCUCGAUAUCAUAUUAAUCUUU	24.4 nM
Ic_S2_P4E.1_K4.1_C4.1_H4.1_A4.1_[T5C]_[A6T]_F4.1_[T8C]_T4.1 (ssRNA) RNA: UUUGAUUAAUAUGAUAUCGUUCUUUCUUGUACUUCAUUCUUUCUCGAUAUCAUAUUAAUCUUU	53.5 nM
Ic_S2_P4E.1_K4.1_C4.1_H4.1_A4.1_[T5C]_[A6T]_F4.1_[T8A]_[A9G]_T4.1 (ssRNA) RNA: UUUGAUUAAUAUGAUAUCGUUCUUUCUUGUACUUAGUUCUUUCUCGAUAUCAUAUUAAUCUUU	141 nM
Ic_S2_P4E.1_K4.1_C4.1_H4.1_A4.1_[T5C]_[A6T]_F4.1_[T8A]_[A9C]_T4.1 (ssRNA) RNA: UUUGAUUAAUAUGAUAUCGUUCUUUCUUGUACUUACUUCUUUCUCGAUAUCAUAUUAAUCUUU	85.2 nM
Ic_S2_P4E.1_K4.1_C4.1_H4.1_A4.1_[T5C]_[A6T]_F4.1_[T8A]_[A9T]_T4.1 (ssRNA) RNA: UUUGAUUAAUAUGAUAUCGUUCUUUCUUGUACUUAUUUCUUUCUCGAUAUCAUAUUAAUCUUU	13.6 nM
Ic_S2_P4E.1_K4.1_C4.1_H4.1_A4.1_[T5C]_[A6T]_F4.1_[T8A]_T4.1 (ssRNA) RNA: UUUGAUUAAUAUGAUAUCGUUCUUUCUUGUACUUAAUUCUUUCUCGAUAUCAUAUUAAUCUUU	22.9 nM
Ic_S2_P4E.1_K4.1_C4.1_H4.1_A4.1_[T5C]_[A6T]_F4.1_[A9G]_T4.1 (ssRNA) RNA: UUUGAUUAAUAUGAUAUCGUUCUUUCUUGUACUUUGUUCUUUCUCGAUAUCAUAUUAAUCUUU	13.1 nM
Ic_S2_P4E.1_K4.1_C4.1_H4.1_A4.1_[T5C]_[A6T]_F4.1_[A9C]_T4.1 (ssRNA) RNA: UUUGAUUAAUAUGAUAUCGUUCUUUCUUGUACUUUCUUCUUUCUCGAUAUCAUAUUAAUCUUU	13.3 nM
UCUCUUUGUAGUUAUCUCUU (ssRNA) [Ib_S1_P3E.1_K3.1_C3.1_H3.1_A3.1_[T5G]_[A6T]_F3.1_T3.1]	1020 nM
Ic_S2_P4E.1_K4.1_C4.1_H4.1_A4.1_[T5C]_[A6T]_F4.1_[A9T]_T4.1 (ssRNA) RNA: UUUGAUUAAUAUGAUAUCGUUCUUUCUUGUACUUUUUUCUUUCUCGAUAUCAUAUUAAUCUUU	9.78 nM
Ic_S2_P4E.1_K4.1_C4.1_H4.1_A4.1_[T5C]_[T7G]_F4.1_[T8C]_T4.1 (ssRNA) RNA: UUUGAUUAAUAUGAUAUCGUUCUUUCUUGUACAGCAUUCUUUCUCGAUAUCAUAUUAAUCUUU	206 nM
Ic_S2_P4E.1_K4.1_C4.1_H4.1_A4.1_[T5C]_[T7G]_F4.1_[A9T]_T4.1 (ssRNA) RNA: UUUGAUUAAUAUGAUAUCGUUCUUUCUUGUACAGUUUUCUUUCUCGAUAUCAUAUUAAUCUUU	9.39 nM
Ic_S2_P4E.1_K4.1_C4.1_H4.1_A4.1_[T5C]_[T7C]_F4.1_[T8C]_T4.1 (ssRNA) RNA: UUUGAUUAAUAUGAUAUCGUUCUUUCUUGUACACCAUUCUUUCUCGAUAUCAUAUUAAUCUUU	14 nM
